Where “and” joins values, the source holds several entries; their conditions need not be identical. Identical values can stand only once. Entries after “also recorded” stand apart in the source; their conditions may differ. Marks after values point to notes of the source that are not given here. Non-standard residues stand in square brackets, D forms with d. No end group written: not given here. Abu = CC[C@H](N)C(=O)O
How the values were obtained:
HLA-A2.01 molecule [1] = molecular target: T1, HLA-A2.01 molecule (Homo sapiens, UniProt P04439, D140Y/D185E/D98H/E176V/E277Q/G131W/G231S/I119V/I121R/I166T/I218V/L300P/L318F/N151K/N90K/P208A/P217A/Q86G/Q94H/R138H/R169H/T345S); assay: Inhibition of binding of 125I-F10V (HBVc.18-27) to soluble HLA-A2.01 molecules
T1 construct: stability conferred on the peptide MHC complex thus formed at the cell surface by using tap T2 cells expressing HLA-A*02.01; endogenous in cells; host or cells: T2 cells
Protocol: The product of the chimeric genes resulting from the translocation (12;21) is a neoprotein which is expressed in the leukemic cells of common B-ALL type and which can be detected by Western blot. […] In a first step, the capacity of 9 junctional nonapeptides to inhibit the binding to soluble HLA-A*0201 was measured.

HLA-A2.01 molecule [2] = molecular target: T1, HLA-A2.01 molecule; assay: Stabilization of HLA-A2.01 molecules at the surface of T2 cells (RA and DC50); type: binding; details: for Measurement of stabilization DC50 (half-life of peptide-HLA-A2.1 stabilized complexes): overnight incubation, indirect immunofluorescence/FACS at 0, 2, 4 and 5 h; for Measurement of stabilization RA: ratio of concentrations of tested versus reference peptide to attain 20% of maximal number of stabilized molecules
Source text: A person well-acquainted with the field of the invention will know how to obtain different mutated and derived peptides and will also know how to determine which of all of the peptides obtained are the peptides having adequate biological activity. […] The term DC50 characterizing the half-life of the peptide HLA-A2.01 complex is described in the publication “H-2 class 1 knockout, HLA-A2.1-transgenic mice: a versatile animal model for preclinical evaluation of antitumor immunotherapeutic strategies” (European Journal of Immunology: 29:3112-21, 1999). This half-life ought normally to make it capable of inducing in vivo or in vitro a cytotoxic immune response. Preferably, the peptide obtained will slow down the growth of lymphoblastic tumor cells when administered to a leukemic receiver and will trigger a cytotoxic T response to the leukemic cells of common type B-ALL with t(12;21) of the leukemic receiver.
It is known that the affinity of an epitopic peptide for the MHC predicts in part its immunogenic potential. This affinity can be measured by its binding capacity to class I MHC and by the stability conferred on the peptide MHC complex thus formed at the cell surface by using tap T2 cells expressing HLA-A*02.01.
These preliminary results have subsequently been used to optimize further the R9M peptide. […] The binding tests performed in vitro by using the soluble HLA-A2.01 molecules and T2 cells have shown that the binding to and the stabilization capacity for the HLA-A2.01 molecules was greater than that of the wildtype R9M peptide (Table 2).

[3] = system: RMAS-HHD cells stimulated with the wildtype peptide; assay: Secondary CTL response of immunized HHD mice against RMAS-HHD cells stimulated with the wildtype peptide; type: in vivo; details: responder = at least 10% specific lysis, targets with wildtype peptide
Source text: (§1) The immunogenicity of the mutated peptides was then studied in the HHD transgenic mouse (H2 class 1—negative and transgenic for HLA-A*02.01). These mice are described in European Journal of Immunology, 29:3112-21, 1999. Groups of more than 10 HHD mice were immunized by the synthetic peptides (emulsion in IFA with the helper peptide HBVcore128-140 as described previously in Firat et al., Eur. J. Immunol. 29:3112-21 (1999)).
(§2) On the other hand, the mutated peptides (having single or double substitutions) induce a strong CTL activity and lyse the TEL AML* tumor lines in the majority of cases (Table 3 and Table 4). The enhanced immunogenicity of the mutated R9M peptides was then confirmed in vitro by using mononucleated cells of 5 healthy HLA-A*02.01 subjects (FIG. 2).

TEL/AML+ EL4-HHD cells = assay: Tertiary CTL response of immunized HHD mice against TEL/AML+ EL4-HHD cells; type: in vivo; details: responder = at least 10% specific lysis, TEL/AML+ EL4-HHD targets
Source text: as §1, §2

[4] = system: RMAS-HHD cells stimulated with the mutated peptide; assay: Tertiary CTL response of immunized HHD mice against RMAS-HHD cells stimulated with the mutated peptide; type: in vivo; details: for R/T (mice responders versus total of mice tested): responder = at least 10% specific lysis, targets with mutated peptide
Source text: as §1, §2

[5] = system: EL4 S3-Rob-HHD cells expressing the TEL/AML1 fusion protein; assay: Tumor model in HHD mice immunized with peptide and injected with tumor cells; details: groups of 8 HHD mice immunized beforehand; for development of tumors (in words): FIG. 3; for survival of the mice (in words): FIG. 4
[6] = system: RMAS-HHD cells stimulated with the mutated peptide; assay: Secondary CTL response of immunized HHD mice against RMAS-HHD cells stimulated with the mutated peptide; type: in vivo; details: for R/T (mice responders versus total of mice tested): responder = at least 10% specific lysis
Source text: as §1, §2

HLA-A2.1*T2 target cells = details: results in the public domain; cited from earlier work
[7] = secondary response, targets with mutated peptide

| Substance | percentage inhibition of the binding of F10V, ratio peptide/125I-F10V 10/1 (HLA-A2.01 molecule [1]) | percentage inhibition of the binding of F10V, ratio peptide/125I-F10V 25/1 (HLA-A2.01 molecule [1]) | Measurement of stabilization DC50 (half-life of peptide-HLA-A2.1 stabilized complexes) (HLA-A2.01 molecule [2]) | Measurement of stabilization RA (HLA-A2.01 molecule [2]) | R/T (mice responders versus total of mice tested) [3] | R/T (mice responders versus total of mice tested) (TEL/AML+ EL4-HHD cells) | R/T (mice responders versus total of mice tested) [4] | R/T (mice responders versus total of mice tested) [6, 7] | further results |
| --- | --- | --- | --- | --- | --- | --- | --- | --- | --- |
| AMPIGRIAE [A9E] | 47^d % | 57% | 2 to 4 h | 10-100 | – | – | – | – | – |
| ILKEPVHGV [HIV 1 rt.476, reference compound] | – | – | 5 h | 1 | – | – | – | – | – |
| PIGRIAECI [P91] | – | – | 0 h | >100 | – | – | – | – | – |
| RIAEAILGM [R9M-5A] | 59% | 72% | <2 h | 3.2 | 2/10 | 6/10 | 1/10 | 2/10 | % of clear lysis (maximal lysis for each mouse responder) ([4]; E/T ratio 60:1, targets with mutated peptide): (20) %; development of tumors (in words) [5]: capable of slowing down the development of tumors; survival of the mice (in words) [5]: prolonging the survival of the mice |
| RIAECILGM (listed as Homo sapiens) [R9M, reference compound] | 64% | 69% | <2 h | 2.9 | – | 5/10 | 2/10 | 1/18 | stability of the peptide/HLA-A2.01 complex at the surface of T2 cells (in words) (HLA-A2.01 molecule [2]): quite unstable; also recorded: not very stable; capacity to induce CTLs from the peripheral blood of healthy donors (in words) (HLA-A2.1*T2 target cells): has been demonstrated; % of clear lysis (maximal lysis for each mouse responder) ([6]; secondary response, E/T ratio 60:1, targets with mutated peptide): (13) %; CTL response induced in immunized HLA-A2.01 transgenic (HHD) mice (in words) ([6]; synthetic peptide in IFA with helper peptide HBVcore128-140): inconstancy and the weakness of the CTL responses induced; also recorded: inconstancy and weakness of the CTL responses induced; also recorded: weak specific CTL response |
| RIAESILGM [R9M-5S] | 74% | 75% | 2 h | 2.2 | 6/14 | 11/14 | 6/10 | 11/14 | development of tumors (in words) [5]: capable of slowing down the development of tumors; survival of the mice (in words) [5]: prolonging the survival of the mice |
| RIAEα-butILGM (RIAE[Abu]ILGM) [R9M-5α-but] | 27% | 49% | 2 h | 2 | – | – | 8/10 | – | R/T (mice responders versus total of mice tested) ([3]; listed as R9M-5a-but): 5/10 and 8/10; R/T (mice responders versus total of mice tested) (TEL/AML+ EL4-HHD cells; listed as R9M-5a-but): 7/10 and 10/10; development of tumors (in words) [5]: capable of slowing down the development of tumors; survival of the mice (in words) [5]: prolonging the survival of the mice; R/T (mice responders versus total of mice tested) ([6]; secondary response, targets with mutated peptide, listed as R9M-5a-but): 7/10 and 8/10 |
| YIAEAILGM [Y9M-5A] | 79% | 87% | 2 to 5 h | 0.9 | 7/10 | 5/10 | 9/10 | 8/10 | – |
| YIAECILGM [Y9M] | – | – | <2 h | >100 | – | – | – | – | – |
| YIAESILGM [Y9M-5S] | 25% | 37% | 2 to 5 h | 1.4 | 3/10 | 6/10 | 9/10 | 9/10 | – |
| YIAEα-butILGM (YIAE[Abu]ILGM) [Y9M-5α-but] | 26% | 26% | 2 to 5 h | 0.7 | – | – | – | – | – |
| YIGRIAECI [Y9I] | – | – | <2 h | >100 | – | – | – | – | – |
| YMPIGRIAE [Y9E] | – | – | 0 h | >100 | – | – | – | – | – |

Reference: patent US8303957B2, “Mutated immunogenic peptides derived from R9M, polynucleotides coding for same and therapeutic uses thereof” (Institut Pasteur, priority 2000, dated 2012)
